Measured values reported in patent publication US20230226096A1 (Orna Therapeutics, Inc., priority 2020, published 2023).

B1: Enterovirus AN12 (nucleic acid, listed as Enterovirus sp.)
DNA: TACCGCTGCACCAGTGAGCTGGTACGCTAGTACCTTCGCACGGAGTAGATGGCATCCCCCACCCCGTAACTTAGAAGCAAAGTACACATCTGGCCAATAGTGGCGCTGCATCCAGCCGCGCAACGGTCAAGCACTTCTGTTTCCCCGGTCCGCAAGGGTCGTTATCCGCCCAGTCCACTACGGAAAGCCTACTAACCATTGAAGCTATCGAGAGGTTGCGCTCGGCCACGACCCCGGTGGTAGCTCTGAGTGATGGGGCTCGCAAACACCCCCGTGGTAACACGGATGCTTGCCCGCGCGTGCACTCGGGTTCAGCCTATTGGTTGTTCACCTCAACATAGTGTAAATGGCCAAGAGCCTACTGTGCTGGATTGGTTTTCCTCCGGAGCCGTGAATGCTGCTAATCCCAACCTCCGAGCGTGTGCGCACAATCCAGTGTTGCTACGTCGTAACGCGTAAGTTGGAGGCGGAACAGACTACTTTCGGTACTCCGTGTTTCTTTTGTTTTATTTTGAATTTTATGGTGACAATTGCTGAGATTTGCGAATTAGCGACTCTACCGCTGAACATTGCCCTGTACTACCTAATCGCATTTCACAAAACCTCAGAGATACCAAGCTCTTACATTGATCTGCTTGTTTTCCTGAATCTCAAATATAAATTGGAACAAGCAAA
B2: Enterovirus sp. isolate CPML (nucleic acid, listed as Enterovirus sp.)
DNA: ACTCTGGTATCACGGTACCTTTGCACGCCTATTTTATACCCCTTCCCCATCGTAACTTAGAAGCAACAAACAAACTGCCCAATAGCAGCACAACACCCAGTTGTGTTAGGGGCAAGCACTTCTGTTTCCCCGGAAGGGTCTGACGGTATGCTGTACCCACGGCAGAAGTATGACCTACCGTTAACCGGCCATGTACTTCGAGAAGCCTAGTACCATTATGAAGGTTGATTGATGTTACGCTCCCCAGCAACCCCAGCTGGTAGTTCTGGTCGATGAGTCTCGGCATTCCCCACGGGCGACCGTGGCCGAGGCTGCGTTGGCGGCCAGCCTACACCATACGGTGTAGGACGTCAAGATACTGACATGGTGTGAAGAGCCTATTGAGCTACGTGGTAGTCCTCCGGCCCCTGAATGCGGCTAATCCTAACTCCGGAGCATCCGCCAGTAAGCCCACTGGAAGGGTGTCGTAATGCGAAAGTCTGGAGCGGAACCGACTACTTTGGGTGTCCGTGTTTCCTGTTTTACTTATTGTTTGGCTGCTTATGGTGACAACTTATAGTTATCATCATAAGCTACTTGGTCTTGCCAACCGGAGAATTATTTGGTTATTTGTTGGTTTCATAAACCTACAGTCGTATTTTCCTGTCTTATTAATTGTTCTCAAAATTAACAACA
B3: Equine rhinitis B virus 1 (nucleic acid)
DNA: CGACAGGCACAGGTCGCTCCGAGTTCTAGTAGTGTGGGAACTTGTTACTACTGATGAAACGAGGTAGTGACACTCAGTACCTGCGAACGAGGTCGGGGCCCTCCCTTCTTCCTTCACCCAACTTTCACTTTTCGTTCCACTTTAGCAGGGGTCTTCTTTCTATCCCCCTGGCGGCATTGGAACTAGCCGTCGCGTCTTAACGCGCAGCCCTGAAGGCCCCACACCTTGTGGATCTTGCCGTGGGTATGTTTCTGGCATGTGTTTCTCAAGCCTGCAACCGAAGCCGAACAGCCACATGAACAGTTTGAGCGTGGTAGCGCTGTGTGAGTTGGCGGTGGATCCCCCTCGTGGTAACACGAGCCCCCGTGGCCAAAAGCCCAGTGTTTACAGCACCTCTCACATCCAGGACGACCCCATCCTGGCGCTCACTCTTAGTAGTATGGCTTAGTACGCATTAGGTGGTAAGCCGAGCTCTCCCTCGGCCTTGTTCTGAATGCACACATGTCTAGGGGCTAAGGATGTCCTACAGGTACCCGCACGTAACCTTCAGAGAGTGCGGATCTGAGTAGGAGACCGTGGTGCACTGCTTTACAGATGCAGCCCGGTTTAAAAAGCGTCTATGCCCCTACAGGGTAGCGGTGGGCCGCGCCCTTTCCTTTTAAAACTACTTGTTCT
B4: Dolphin morbillivirus (nucleic acid, listed as Morbillivirus sp.)
DNA: ACCAGACAAAGCTGGCTAGGGGTAGAATAACAGATAATGATAAATTATCATACTTAGGATTAATGATCCTATCAATTGGCACAGGATTTGGATAAAGGTTCACAGTC
modifications: chemistry not fully specified; the letters are possibly those of the target site
B5: Carp picornavirus 1 (nucleic acid)
DNA: AGCTACAGGAAAGAGAGAGATAATCACAGCACATAAATACAACTACAGAAGAGAGCCTTTCCCTGAGCACTATTTACAGCAAACCACGCTGGGAAAAGTGGTAGCATGACCCACTTACGGGTTACTTAGTATAGGATTTTAATATCTTCGATTCTTTATTTTCTTTTCTTAACTAAGTTCGCCCGGACTTTATCCGTGTTTTATTTTAGTTTAAGCAAAATTGAGTAACTAAGTTTTTAACCTGCCAAATGGTGAGAAGTAACTCTGTGAAAATACCATTTGTGCATGAAATTGTCTTGAAAACTCTTAGGCTTTTGGGGGGTCCCACTGCTGTTTGGAGGACTATTGACAGACTCTATTGTAGTTGAGTAGTGACTAATGATAACGATTTGCGTATTACGCAATGGGCTGTACCCGTTAGATTTAGTATGCCGGGGGGAGGGGTCCCACTGGATTGCACTATGTAACCTGACAGGGCGTCTGCCGACGCACTACAATGAGGATAAGATCGGCTGTTTTTATTT
B6: Megirivirus A LY (nucleic acid)
DNA: TTCGGGACACTGGATGGGCGACTTGGTGGGGCTGCCACTCTATCTTGACCTTTCGTTACTGACTTTCGGATCTCTGACTCCTCCTTGTCTCTTGCGTTTGGTCCACGGACGGACTAATTGGAATGTTTACTGGCTAAGCCTCGTTCTGAAATACCCTAGCCAATGGGTTGTAGTAGGATCCTGGTGTTTCCATTAAACCTCTTCCGACCATAGTAGCTAGAGTTATGGCTGTGTAGGATGTGGGTAAGACCGCTTTTTGCGTATCTCCCACAAGACACCGGATTATGGATGTGTCCGCTGGATAAGGCTCGAAACCTCCCAACTGAAGGTGGTGCTGAAATATTGCAAGCCTAGGTTGTGTAGAGGCAAGTAGATGCCTGCCGCGACATTCGTCTTCCGCCCTTTTGGGTTAGTAGTGTACCTACATGGACGTGGGGCTGGGAATCCCCACCTTGCATAACACTGGTTGATAGACCTGCGGCTGGTCAAGTTACTATGGTATAACCAGTTGAAATGGCT
B7: Equine rhinitis A virus (nucleic acid)
DNA: AAGGGTTACTGCTCGTAATGAGAGCACATGACATTTTGCCAAGATTTCCTGGCAATTGTCACGGGAGAGAGGAGCCCGTTCTCGGGCACTTTTCTCTCAAACAATGTTGGCGCGCCTCGGCGCGCCCCCCCTTTTTCAGCCCCCTGTCATTGACTGGTCGAAGGCGCTCGCAATAAGACTGGTCGTTGCTTGGCTTTTCTATTGTTTCAGGCTTTAGCGCGCCCTTGCGCGGCGGGCCGTCAAGCCCGTGTGCTGTACAGCACCAGGTAACCGGACAGCGGCTTGCTGGATTTTCCCGGTGCCATTGCTCTGGATGGTGTCACCAAGCTGGCAGATGCGGAGTGAACCTTACGAAGCGACACACCTGTGGTAGCGCTGCCCAGAAGGGAGCGGAGCTCCCCCGCCGCGAGGCGGTCCTCTCTGGCCAAAAGCCCAGCGTTAATAGCGCCTTCTGGGATGCAGGAACCCCACCTGCCAGGTGTGAAGTGGACTAAGTGGATCTCCAATTTGGCCTGTTCTGAACTACACCATCTACTGCTGTGAAGAATGTCCTGAAGGCAAGCTGGTTACAGCCCTGATCAGGAGCCCCGCTCGTGACTCTCGATCGACGCGGGGTCAAAAACTGTCTAAGCAGCAGCAGAAACGCGGGAGCGTTTCTTTTTCCTCATTTGTTTC
modifications: Equine rhinitis A virus
B8: Guereza hepacivirus (nucleic acid, listed as Hepacivirus sp.)
DNA: CACTCAATACTACACTCCGCATTTGGGGAGAAGCGCTGGCGTTCGCGGAACCGCGTTAACCATACGCGTAGTACGAGTGCGACAGACCCCGGTGCTACTGGTGGTAGCGAGACACGAGCCGAAGTCTGTGGGGGGAACTCCACTTAGAGGGCATGCCCGGGCGTAGGCTTCTGAGTTGGGATGGGCCCCAACTTGGCCCCTGAGTGGGGGGGTGTTACGACCTGATAGGGTGCGGGCTGGCGCCTACCACTTTCCAGTCGTACATGAGTC
B9: Falcon picornavirus (nucleic acid)
DNA: CGCTTGGAATAAGTTGAGAGGAATTATGCATGCTAGTTGTGTTTGTTTACAACTAATTGTTCTAATCCAAGTGAAGCTCTTCGCTTGGGGCGGCACGACACTTGCCGTAATTCTTCTACCGTCCCTCCACACCTTGTGGATGAAGGGCCGGATGTGTGGCCTCTGGCTAACCCCTCTCTCTGGGGTGATGCTACTGGATGTTTTACTCCTAGACCAAATCACATGAACTCCTCTTGATCCACTTCGGTGGGGCTATGAGCCTGCGGATTAATAGCTGGCGACAGCTACCCCAGGGGCCAAAAGCCACGGTGTTAGCAGCACCCTCATAGTCTGATGCCCAAGGGCTGATGTTGGGAGCTAGTAGTGTGTGTCTGGCCTATGTTTAGGACTTCTGGCCAAGCGCAGAGGAGTGGGGCTGAAGGATGCCCAGAAGGTACCCGTAGGTAACCTTAAGAGACTATGGATCTGATCTGGGGCCCCCTCACGTGGCTTTACCACGTGTTGGGGGTTAAAAAACGTCTAGGCCCCACCAGCCCACGGGAGTGGGCTTTCCCTTAAAAAGCCCAACAATATTTATGGTGACAATTCACTGTTTCTTCTTTGCAATTTTTGTATTCTTGGACTCCTTATTTTTTGTTTGCTTGATTTTAGTGGACATTCAGATTCAAATACAAA
B10: Dianke virus (nucleic acid)
DNA: TGTTTTCAACCATAATACTACTACTACAAGTATAAAACCCCGTCCGTCTGTCGGAGACGCTAAACTCTGACCACCAATCTAGCCACATCAGTTGCTTAAAGAACCTCTTGAGACACTCTCCCACTTAACATCTTTTAGGAATCTTCGATGCTACAACAACTTGGCTAGTGAACAATAAATCCGTACAATTCACAGTTGTAAGAGGCCATAGGTCCAGACTTTGAAAGGTTTGTTTCTATTGTTACAAATACTTAGATTAACAGAGGCTATTTAATAGTGCTCATCACGTTAACAGAGTAACCTTGTGCAATAGTATGAGCTTGTTGTAAAACGTCTTGATACGACACC
B11: Equine arteritis virus (nucleic acid)
DNA: GCTCGAAGTGTGTATGGTGCCATATACGGCTCACCACCATATACACTGCAAGAATTACTATTCTTGTGGGCCCCTCTCGGTAAATCCTAGAGGGCTTTCCTCTCGTTATTGCGAGATTCGTCGTTAGATAACGGCAAGTTCCCTTTCTTACTATCCTATTTTCATCTTGTGGCTTGACGGGTCACTGCCATCGTCGTCGATCTCTATCAACTACCCTTGCGACT

What follows are molecules tested on HEK293 cells. Details: luminescence from secreted Gluc in supernatant 24 hours after transfection of HEK293 cells; circular RNA encoding Gluc with the named IRES (UTR truncated to 675 nt).
Assay type: cell-based, human

Molecule | Expression
B1 | 3.87E+06
B2 | 6.83E+07
B3 | 1.01E+05
B4 | 1.22E+05
B5 | 1.13E+05
B6 | 1.80E+06
B7 | 3.73E+05
B8 | 1.38E+05
B9 | 3.08E+06
B10 | 1.35E+05
B11 | 1.89E+05
